Measurements reported in patent US20240199740A1.

Biological target: soluble recombinant cynomolgus TCR α/β-zipper protein (cynomolgus/rhesus monkey)
Experiment: ELISA, 2 µg/mL coated soluble recombinant cynomolgus TCR α/β-zipper protein

Chain of soluble recombinant cynomolgus TCR α/β-zipper protein (cynomolgus/rhesus monkey) (alpha, as listed by the source limits assumed, form in doubt, chain 1 of 2): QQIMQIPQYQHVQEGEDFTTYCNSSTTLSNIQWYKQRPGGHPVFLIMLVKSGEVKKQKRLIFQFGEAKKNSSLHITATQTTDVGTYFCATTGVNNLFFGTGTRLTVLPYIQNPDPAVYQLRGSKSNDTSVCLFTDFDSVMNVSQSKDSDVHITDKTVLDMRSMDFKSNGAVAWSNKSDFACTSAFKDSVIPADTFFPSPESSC
Chain of soluble recombinant cynomolgus TCR α/β-zipper protein (cynomolgus/rhesus monkey) (beta, as listed by the source limits assumed, form in doubt, chain 2 of 2): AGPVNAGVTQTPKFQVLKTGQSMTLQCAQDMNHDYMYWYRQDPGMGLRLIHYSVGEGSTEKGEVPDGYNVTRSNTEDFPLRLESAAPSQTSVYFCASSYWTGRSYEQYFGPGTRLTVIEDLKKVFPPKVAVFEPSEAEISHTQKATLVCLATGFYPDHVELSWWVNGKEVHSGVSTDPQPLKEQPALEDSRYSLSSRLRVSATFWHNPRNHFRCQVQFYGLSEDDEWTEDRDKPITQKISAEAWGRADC

Substance: anti-non-human primate/Rat TCRα/β antibody clone R73
- EC50 (read off the curve): 100 pM
